Results taken from the supplement of paper PMC5998384.

Experiments:
HeLa Kyoto [1] = assay: solubility change mitosis vs G1/S (difference of NP-40 vs SDS log2 ratios) (log2 ratio difference); higher = more soluble in mitosis
HeLa Kyoto [2] = assay: solubility in G1/S (NP-40 vs SDS abundance) (log2 ratio); higher = more soluble; settings: cell cycle stage: G1/S
HeLa Kyoto [3] = assay: melting temperature (median over replicates), in situ; higher = more thermally stable
HeLa Kyoto [4] = assay: thermal stability score vs G1/S (z-score of summed log2 fold changes over temperatures); higher = more thermally stable than in G1/S
[5] = cell cycle stage: early G1 (4.5 h after nocodazole release)
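Throughout, for melting temperature (median over replicates), in situ: HeLa Kyoto cells synchronized by double thymidine or nocodazole block, proteins quantified by TMT10plex mass spectrometry, three independent biological replicates.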
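Throughout, for solubility change mitosis vs G1/S (difference of NP-40 vs SDS log2 ratios): synchronized HeLa Kyoto cells (double thymidine block for G1/S, nocodazole release for mitosis), protein amounts in NP-40 versus SDS lysates quantified by mass spectrometry, three biological replicates.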
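Throughout, for solubility in G1/S (NP-40 vs SDS abundance): HeLa Kyoto cells arrested at G1/S by double thymidine block, proteins quantified by TMT10plex mass spectrometry in mild NP-40 versus SDS extracts, three biological replicates.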
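Throughout, for thermal stability score vs G1/S (z-score of summed log2 fold changes over temperatures): synchronized HeLa Kyoto cells, proteins quantified by TMT10plex mass spectrometry, three biological replicates, mitosis taken 0.5 h after nocodazole release, G1/S directly after double thymidine block.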

Sequence | solubility change mitosis (log2) (HeLa Kyoto [1]) | solubility in G1/S (log2) (HeLa Kyoto [2]) | melting temperature (HeLa Kyoto [3]; cell cycle stage: G1/S) | melting temperature (HeLa Kyoto [3]; cell cycle stage: mitosis) | thermal stability score (HeLa Kyoto [4]; [5]) | thermal stability score (HeLa Kyoto [4]; cell cycle stage: mitosis)
MSDEEARQSGGSSQAGVVTVSDVQELMRRKEEIEAQIKANYDVLESQKGIGMNEPLVDCEGYPRSDVDLYQVRTARHNIICLQNDHKAVMKQVEEALHQLHARDKEKQARDMAEAHKEAMSRKLGQSESQGPPRAFAKVNSISPGSPASIAGLQVDDEIVEFGSVNTQNFQSLHNIGSVVQHSEGKPLNVTVIRRGEKHQLRLVPTRWAGKGLLGCNIIPLQR [PSMD9] | 0.112 | 0.431 | 55.8 °C | 55.7 °C | -2.77 | -3.23
MSDFDEFERQLNENKQERDKENRHRKRSHSRSRSRDRKRRSRSRDRRNRDQRSASRDRRRRSKPLTRGAKEEHGGLIRSPRHEKKKKVRKYWDVPPPGFEHITPMQYKAMQAAGQIPATALLPTMTPDGLAVTPTPVPVVGSQMTRQARRLYVGNIPFGITEEAMMDFFNAQMRLGGLTQAPGNPVLAVQINQDKNFAFLEFRSVDETTQAMAFDGIIFQGQSLKIRRPHDYQPLPGMSENPSVYVPGVVSTVVPDSAHKLFIGGLPNYLNDDQVKELLTSFGPLKAFNLVKDSATGLSKGYAFCEYVDINVTDQAIAGLNGMQLGDKKLLVQRASVGAKNATLVSPPSTINQTPVTLQVPGLMSSQVQMGGHPTEVLCLMNMVLPEELLDDEEYEEIVEDVRDECSKYGLVKSIEIPRPVDGVEVPGCGKIFVEFTSVFDCQKAMQGLTGRKFANRVVVTKYCDPDSYHRRDFW [U2AF2] | 0.177 | -0.395 | 49.7 °C | 50.5 °C | 1.65 | 5.33
MSDGDYDYLIKFLALGDSGVGKTSVLYQYTDGKFNSKFITTVGIDFREKRVVYRASGPDGATGRGQRIHLQLWDTAGQERFRSLTTAFFRDAMGFLLLFDLTNEQSFLNVRNWISQLQMHAYCENPDIVLCGNKSDLEDQRVVKEEEAIALAEKYGIPYFETSAANGTNISQAIEMLLDLIMKRMERCVDKSWIPEGVVRSNGHASTDQLSEEKEKGACGC [RAB27A] | -0.0891 | 0.222 | 52.7 °C | 53.9 °C | 2.41 | 2.1
MSDHGDVSLPPEDRVRALSQLGSAVEVNEDIPPRRYFRSGVEIIRMASIYSEEGNIEHAFILYNKYITLFIEKLPKHRDYKSAVIPEKKDTVKKLKEIAFPKAEELKAELLKRYTKEYTEYNEEKKKEAEELARNMAIQQELEKEKQRVAQQKQQQLEQEQFHAFEEMIRNQELEKERLKIVQEFGKVDPGLGGPLVPDLEKPSLDVFPTLTVSSIQPSDCHTTVRPAKPPVVDRSLKPGALSNSESIPTIDGLRHVVVPGRLCPQFLQLASANTARGVETCGILCGKLMRNEFTITHVLIPKQSAGSDYCNTENEEELFLIQDQQGLITLGWIHTHPTQTAFLSSVDLHTHCSYQMMLPESVAIVCSPKFQETGFFKLTDHGLEEISSCRQKGFHPHSKDPPLFCSCSHVTVVDRAVTITDLR [STAMBP] | -0.118 | 0.276 | 48.6 °C | 49.7 °C | 0.214 | 0.921
MSDIGDWFRSIPAITRYWFAATVAVPLVGKLGLISPAYLFLWPEAFLYRFQIWRPITATFYFPVGPGTGFLYLVNLYFLYQYSTRLETGAFDGRPADYLFMLLFNWICIVITGLAMDMQLLMIPLIMSVLYVWAQLNRDMIVSFWFGTRFKACYLPWVILGFNYIIGGSVINELIGNLVGHLYFFLMFRYPMDLGGRNFLSTPQFLYRWLPSRRGGVSGFGVPPASMRRAADQNGGGGRHNWGQGFRLGDQ [DERL1] | -0.273 | 0.00239 | 51.6 °C | 55.3 °C | -0.109 | -0.882
MSDKSELKAELERKKQRLAQIREEKKRKEEERKKKETDQKKEAVAPVQEESDLEKKRREAEALLQSMGLTPESPIVFSEYWVPPPMSPSSKSVSTPSEAGSQDSGDGAVGSRTLHWDTDPSVLQLHSDSDLGRGPIKLGMAKITQVDFPPREIVTYTKETQTPVMAQPKEDEEEDDDVVAPKPPIEPEEEKTLKKDEENDSKAPPHELTEEEKQQILHSEEFLSFFDHSTRIVERALSEQINIFFDYSGRDLEDKEGEIQAGAKLSLNRQFFDERWSKHRVVSCLDWSSQYPELLVASYNNNEDAPHEPDGVALVWNMKYKKTTPEYVFHCQSAVMSATFAKFHPNLVVGGTYSGQIVLWDNRSNKRTPVQRTPLSAAAHTHPVYCVNVVGTQNAHNLISISTDGKICSWSLDMLSHPQDSMELVHKQSKAVAVTSMSFPVGDVNNFVVGSEEGSVYTACRHGSKAGISEMFEGHQGPITGIHCHAAVGAVDFSHLFVTSSFDWTVKLWTTKNNKPLYSFEDNADYVYDVMWSPTHPALFACVDGMGRLDLWNLNNDTEVPTASISVEGNPALNRVRWTHSGREIAVGDSEGQIVIYDVGEQIAVPRNDEWARFGRTLAEINANRADAEEEAATRIPA [DYNC1I2] | -0.0123 | -0.0277 | 53.2 °C | 52.3 °C | -2.66 | -3.05
MSDLRITEAFLYMDYLCFRALCCKGPPPARPEYDLVCIGLTGSGKTSLLSKLCSESPDNVVSTTGFSIKAVPFQNAILNVKELGGADNIRKYWSRYYQGSQGVIFVLDSASSEDDLEAARNELHSALQHPQLCTLPFLILANHQDKPAARSVQEIKKYFELEPLARGKRWILQPCSLDDMDALKDSFSQLINLLEEKDHEAVRM [ARL15] | -0.114 | 0.118 |  | 53.2 °C | -0.792 | 0.438
MSDNPPRMEVCPYCKKPFKRLKSHLPYCKMIGPTIPTDQKVYQSKPATLPRAKKMKGPIKDLIKAKGKELETENEERNSKLVVDKPEQTVKTFPLPAVGLERAATTKADKDIKNPIQPSFKMLKNTKPMTTFQEETKAQFYASEKTSPKRELAKDLPKSGESRCNPSEAGASLLVGSIEPSLSNQDRKYSSTLPNDVQTTSGDLKLDKIDPQRQELLVKLLDVPTGDCHISPKNVSDGVKRVRTLLSNERDSKGRDHLSGVPTDVTVTETPEKNTESLILSLKMSSLGKIQVMEKQEKGLTLGVETCGSKGNAEKSMSATEKQERTVMSHGCENFNTRDSVTGKESQGERPHLSLFIPRETTYQFHSVSQSSSQSLASLATTFLQEKKAEAQNHHCVPDVKALMESPEGQLSLEPKSDSQFQASHTGCQSPLCSAQRHTPQSPFTNHAAAAGRKTLRSCMGLEWFPELYPGYLGLGVLPGKPQCWNAMTQKPQLISPQGERLSQVSLLERSSTHIRSLEPPAGLTTSNFSLMRLLGAVQKGWIRCNTTIRKSGFGGITMLFTGYFVLCCSWSFRRLKKLCRPLPWKSTVPPCIGVAKTTGDCRSKTCLD [C17ORF80] | -0.00249 | 0.0361 | 54.5 °C | 54 °C | -2.69 | -2.84
MSECGGRGGGSSSSEDAEDEGGGGGGPAGSDCLSSSPTLATASSAGRLRRGLRGAFLMARQRPELLCGAVALGCALLLALKFTCSRAKDVIIPAKPPVSFFSLRSPVLDLFQGQLDYAEYVRRDSEVVLLFFYAPWCGQSIAARAEIEQAASRLSDQVLFVAINCWWNQGKCRKQKHFFYFPVIYLYHRSFGPIEYKGPMSAVYIEKFVRRVMKPLLYIPSQSELLDFLSNYEPGVLGYFEFSGSPQPPGYLTFFTSALHSLKKALESTSSPRALVSFTGEWHLETKIYVLDYLGTVRFGVITNKHLAKLVSLVHSGSVYLHRHFNTSLVFPREVLNYTAENICKWALENQETLFRWLRPHGGKSLLLNNELKKGPALFLFIPFNPLAESHPLIDEITEVALEYNNCHGDQVVERLLQHLRRVDAPVLESLALEVPAQLPDPPTITASPCCNTVVLPQWHSFSRTHNVCELCVNQTSGGMKPSSVSVPQCSFFEMAAALDSFYLKEQTFYHVASDSIECSNFLTSYSPFSYYTACCRTISRGVSGFIDSEQGVFEAPTVAFSSLEKKCEVDAPSSVPHIEENRYLFPEVDMTSTNFTGLSCRTNKTLNIYLLDSNLFWLYAERLGAPSSTQVKEFAAIVDVKEESHYILDPKQALMKLTLESFIQNFSVLYSPLKRHLIGSGSAQFPSQHLITEVTTDTFWEVVLQKQDVLLLYYAPWCGFCPSLNHIFIQLARNLPMDTFTVARIDVSQNDLPWEFMVDRLPTVLFFPCNRKDLSVKYPEDVPITLPNLLRFILHHSDPASSPQNVANSPTKECLQSEAVLQRGHISHLEREIQKLRAEISSLQRAQVQVESQLSSARRDEHRLRQQQRALEEQHSLLHAHSEQLQALYEQKTRELQELARKLQELADASENLLTENTWLKILVATMERKLEGRDGAESLAAQREVHPKQPEPSATPQLPGSSPPPANVSATLVSERNKENRTD [TXNDC11] | -0.134 | -0.00943 | 53.5 °C |  | 0.926 | 2.27
MSEEIITPVYCTGVSAQVQKQRARELGLGRHENAIKYLGQDYEQLRVRCLQSGTLFRDEAFPPVPQSLGYKDLGPNSSKTYGIKWKRPTELLSNPQFIVDGATRTDICQGALGDCWLLAAIASLTLNDTLLHRVVPHGQSFQNGYAGIFHFQLWQFGEWVDVVVDDLLPIKDGKLVFVHSAEGNEFWSALLEKAYAKVNGSYEALSGGSTSEGFEDFTGGVTEWYELRKAPSDLYQIILKALERGSLLGCSIDISSVLDMEAITFKKLVKGHAYSVTGAKQVNYRGQVVSLIRMRNPWGEVEWTGAWSDSSSEWNNVDPYERDQLRVKMEDGEFWMSFRDFMREFTRLEICNLTPDALKSRTIRKWNTTLYEGTWRRGSTAGGCRNYPATFWVNPQFKIRLDETDDPDDYGDRESGCSFVLALMQKHRRRERRFGRDMETIGFAVYEVPPELVGQPAVHLKRDFFLANASRARSEQFINLREVSTRFRLPPGEYVVVPSTFEPNKEGDFVLRFFSEKSAGTVELDDQIQANLPDEQVLSEEEIDENFKALFRQLAGEDMEISVKELRTILNRIISKHKDLRTKGFSLESCRSMVNLMDRDGNGKLGLVEFNILWNRIRNYLSIFRKFDLDKSGSMSAYEMRMAIESAGFKLNKKLYELIITRYSEPDLAVDFDNFVCCLVRLETMFRFFKTLDTDLDGVVTFDLFKWLQLTMFA [CAPN1] | -0.164 | -0.203 | 55.9 °C | 56.5 °C | -0.914 | -1.67
MSEGNAAGEPSTPGGPRPLLTGARGLIGRRPAPPLTPGRLPSIRSRDLTLGGVKKKTFTPNIISRKIKEEPKEEVTVKKEKRERDRDRQREGHGRGRGRPEVIQSHSIFEQGPAEMMKKKGNWDKTVDVSDMGPSHIINIKKEKRETDEETKQILRMLEKDDFLDDPGLRNDTRNMPVQLPLAHSGWLFKEENDEPDVKPWLAGPKEEDMEVDIPAVKVKEEPRDEEEEAKMKAPPKAARKTPGLPKDVSVAELLRELSLTKEEELLFLQLPDTLPGQPPTQDIKPIKTEVQGEDGQVVLIKQEKDREAKLAENACTLADLTEGQVGKLLIRKSGRVQLLLGKVTLDVTMGTACSFLQELVSVGLGDSRTGEMTVLGHVKHKLVCSPDFESLLDHKHR [POLR3D] | -0.118 | 0.144 |  | 48.8 °C | -0.688 | -1.1
MSELTKELMELVWGTKSSPGLSDTIFCRWTQGFVFSESEGSALEQFEGGPCAVIAPVQAFLLKKLLFSSEKSSWRDCSEEEQKELLCHTLCDILESACCDHSGSYCLVSWLRGKTTEETASISGSPAESSCQVEHSSALAVEELGFERFHALIQKRSFRSLPELKDAVLDQYSMWGNKFGVLLFLYSVLLTKGIENIKNEIEDASEPLIDPVYGHGSQSLINLLLTGHAVSNVWDGDRECSGMKLLGIHEQAAVGFLTLMEALRYCKVGSYLKSPKFPIWIVGSETHLTVFFAKDMALVAPEAPSEQARRVFQTYDPEDNGFIPDSLLEDVMKALDLVSDPEYINLMKNKLDPEGLGIILLGPFLQEFFPDQGSSGPESFTVYHYNGLKQSNYNEKVMYVEGTAVVMGFEDPMLQTDDTPIKRCLQTKWPYIELLWTTDRSPSLN [FAM188A] | -0.147 | 0.00352 |  | 52.9 °C | -0.555 | -1.31
